Reference: patent publication US6803203

What was measured:
[1] = test system: T1, synthetic peptide (SEQ ID NO: 11)
T1 sequence: EPPLSQEAFADLWKK

[2] = test system: T2, synthetic peptide (SEQ ID NO: 20)
T2 sequence: EPPLSEQAFADLWKK

Substance | incorporation of phosphate into the peptide (200 or 500 µM) [1] | incorporation of phosphate into the peptide (200 or 500 µM) [2]
catalytic subunit of cyclic AMP kinase | less than 5% of the incorporation into the standard peptides used to assay each kinase | less than 5% of the incorporation into the standard peptides used to assay each kinase
casein kinase II | less than 5% of the incorporation into the standard peptides used to assay each kinase | less than 5% of the incorporation into the standard peptides used to assay each kinase
casein kinase I | less than 5% of the incorporation into the standard peptides used to assay each kinase | less than 5% of the incorporation into the standard peptides used to assay each kinase
